# B1: 154A dominant negative (designed binder)
# chain: TAEELLEVHKKSDRVTKEHLRVSEEILKVVEVLTRGEVSSEVLKRVLRKLEELTDKLRRVTEEQRRVVEKLN
# notes: also called DN
# B2: 155A-ZF43_8 (designed binder)
# chain: PEDDVVRIIKEDLESNREVLREQKEIHRILELVTRGEVSEEAIDRVLKRQEDLLKKQKESTDKARKVVEERR
# notes: Expressed in S. cerevisiae; also called DHD155A fused to ZF43_8
# B3: DHD13B (fusion partner in the split TF assay not stated for this statement) (designed binder)
# chain: GTEKRLLEEAERAHREQKEIIKKAQELHRRLEEIVRQSGSSEEAKKEAKKILEEIRELSKRSLELLREILYLSQEQKGSEGSGSEGS
# notes: not shown: fused to VP16 or ZF43_8
# B4: 37A-ZF43_8 (designed binder)
# chain: DSDEHLKKLKTFLENLRRHLDRLDKHIKQLRDILSENPEDERVKDVIDLSERSVRIVKTVIKIFEDSVRKKEGSEGSGSEGS
# notes: Expressed in S. cerevisiae; also called DHD37A fused to ZF43_8; 37A DHD-DBD
# Assays:
# 154B-VP16 = target: T1, 154B-VP16; experiment: competition in the split TF YFP reporter assay in yeast, layout of FIG. 2A (FIG. 2D)
# T1 construct: Expressed in S. cerevisiae; also called DHD154B fused to VP16
# T1 chain: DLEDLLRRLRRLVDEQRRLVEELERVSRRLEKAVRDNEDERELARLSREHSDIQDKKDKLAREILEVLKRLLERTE
# 155B-VP16 = target: T2, 155B-VP16; experiment: split TF YFP reporter assay in S. cerevisiae (all-by-all matrix, FIG. 1D)
# T2 construct: Expressed in S. cerevisiae; also called DHD155B fused to VP16
# T2 chain: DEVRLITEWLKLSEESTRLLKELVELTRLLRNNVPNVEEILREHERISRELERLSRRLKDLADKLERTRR
# [1] = target: T3, DHD37B (fusion partner in the split TF assay not stated for this statement); experiment: split TF YFP reporter assay in S. cerevisiae (all-by-all matrix, FIG. 1D); orientation of the fusions not told
# T3 construct: not shown: fused to VP16 or ZF43_8
# T3 chain: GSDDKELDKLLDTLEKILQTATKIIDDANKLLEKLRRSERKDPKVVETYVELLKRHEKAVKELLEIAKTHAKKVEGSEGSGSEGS
# 37B-VP16 = target: T4, 37B-VP16; experiment: split TF YFP reporter assay in S. cerevisiae (all-by-all matrix, FIG. 1D)
# T4 construct: Expressed in S. cerevisiae; also called DHD37B fused to VP16; 37B DHD-AD
# T4 chain: T3 chain
binder,measurement,setting,value
B1,binding result,154B-VP16,binds
B2,binding result,155B-VP16,binds
B3,binding result,[1],binds
B4,binding result,37B-VP16,binds
